Measurements from patent publication US7407939B2, “Protein kinase inhibitors comprising ATP mimetics conjugated to peptides or peptidomimetics” (CureGenics Ltd., priority 2001, dated 2008).
Where no end group is shown, it is not given here. Side-chain parts run from the residue outwards. [ ]: non-standard residue; d: D form. The star is where a group is joined. SO2‑IQ = 5-aminoethylsulfoneamide isoquinoline, O=S(=O)(NCCN*)c1cccc2cnccc12; X1 = 5‑aminoethylsulfonamide isoquinoline, O=S(=O)(NCCN*)c1cccc2cnccc12; hLeu = CC(C)CC[C@H](N)C(=O)O; GltNH2 = not defined here; Nle = CCCC[C@H](N)C(=O)O; Orn = NCCC[C@H](N)C(=O)O; Dab = NCC[C@H](N)C(=O)O; Nva = CCC[C@H](N)C(=O)O; Abu = CC[C@H](N)C(=O)O; Dap = NC[C@H](N)C(=O)O; Ph2 = not defined here; GlyNH2 = aminoglycine

Biological target: T1, PKB (Homo sapiens, UniProt P31749)
T1 construct: His; HA; made in house
T1 sequence (P31749 whole entry, species assumed): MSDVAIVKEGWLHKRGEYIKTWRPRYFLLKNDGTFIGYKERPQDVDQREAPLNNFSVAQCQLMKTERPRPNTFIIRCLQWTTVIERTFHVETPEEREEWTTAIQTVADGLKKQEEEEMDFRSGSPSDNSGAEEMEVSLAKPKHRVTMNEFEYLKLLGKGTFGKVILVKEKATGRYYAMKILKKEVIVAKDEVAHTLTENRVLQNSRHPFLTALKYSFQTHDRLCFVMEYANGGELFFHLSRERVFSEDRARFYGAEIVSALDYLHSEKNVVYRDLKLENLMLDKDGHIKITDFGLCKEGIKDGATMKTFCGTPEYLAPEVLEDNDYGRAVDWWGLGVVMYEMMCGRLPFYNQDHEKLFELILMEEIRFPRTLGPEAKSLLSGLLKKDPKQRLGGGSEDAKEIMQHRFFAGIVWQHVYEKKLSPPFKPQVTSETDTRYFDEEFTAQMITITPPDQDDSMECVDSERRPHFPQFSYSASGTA
Assay: PKB in vitro kinase activity assay (soluble His-HA-PKB / SPA bead screening)
Format: biochemical
Design: % Inhibition PKB I / % Inhibition PKB II: concentration or dose not given beside the values
Details: for % Inhibition PKB I / % Inhibition PKB II: plate screening, peptide moiety alone; for PKB-kinase (spa) Assay 1, % inhibition of kinase activity / PKB-kinase (spa) Assay 2, % inhibition of kinase activity: 1 μM compound concentration

Substance	IC50 (chimeric PTR compounds (peptide conjugated to isoquinoline small molecule), read-out: PKB IC50)	% Inhibition PKB I	% Inhibition PKB II	PKB-kinase (spa) Assay 1, % inhibition of kinase activity	PKB-kinase (spa) Assay 2, % inhibition of kinase activity
6106 (RPRT[Dap](SO2‑IQ)SF) [compound 6106]	10 µM				
60002-50 (RPRTSA[hLeu]) [Compound 60002-50]		62%			
60006-7B (RPR[Nva][GlyNH2][Abu][hLeu]) [Compound 60006-7B]		53%	47%		
60006-11B (RPR[Nva][GlyNH2][Dap][Ph2]; reading uncertain) [Compound 60006-11B]		51%	44%		
60006-16A (RPR[Nva][GlyNH2][GltNH2][hLeu]; reading uncertain) [Compound 60006-16A]		42%	42%		
60020-4: Arg-Pro-Arg-Dap-Glu(5-aminoethylsulfonamide isoquinoline)-Orn-Hol (RPR[Dap]E(X1)[Orn][hLeu])				34%	53%
60020-5: Arg-Pro-Arg-Dap-Glu(5-aminoethylsulfonamide isoquinoline)-Ala-Phe (RPR[Dap]E(X1)AF)				46%	26%
60020-6: Arg-Pro-Arg-Dap-Glu(5-aminoethylsulfonamide isoquinoline)-Ala-Hol (RPR[Dap]E(X1)A[hLeu])				32%	14%
60020-8: Arg-Pro-Arg-Dap-Glu(5-aminoethylsulfonamide isoquinoline)-Nva-Hol (RPR[Dap]E(X1)[Nva][hLeu])				18%	0%
60020-12: Arg-Pro-Arg-Orn-Glu(5-aminoethylsulfonamide isoquinoline)-Orn-Hol (RPR[Orn]E(X1)[Orn][hLeu])				23%	3%
60020-13: Arg-Pro-Arg-Orn-Glu(5-aminoethylsulfonamide isoquinoline)-Ala-Phe (RPR[Orn]E(X1)AF)				36%	29%
60020-14: Arg-Pro-Arg-Orn-Glu(5-aminoethylsulfonamide isoquinoline)-Ala-Hol (RPR[Orn]E(X1)A[hLeu])				26%	31%
60020-15: Arg-Pro-Arg-Orn-Glu(5-aminoethylsulfonamide isoquinoline)-Nva-Phe (RPR[Orn]E(X1)[Nva]F)				31%	44%
60020-16: Arg-Pro-Arg-Orn-Glu(5-aminoethylsulfonamide isoquinoline)-Nva-Hol (RPR[Orn]E(X1)[Nva][hLeu])				5%	37%
60020-17: Arg-Pro-Arg-Abu-Glu(5-aminoethylsulfonamide isoquinoline)-Dab-Phe (RPR[Abu]E(X1)[Dab]F)				34%	38%
60020-18: Arg-Pro-Arg-Abu-Glu(5-aminoethylsulfonamide isoquinoline)-Dab-Hol (RPR[Abu]E(X1)[Dab][hLeu])				18%	28%
60020-19: Arg-Pro-Arg-Abu-Glu(5-aminoethylsulfonamide isoquinoline)-Orn-Phe (RPR[Abu]E(X1)[Orn]F)				32%	26%
60020-20: Arg-Pro-Arg-Abu-Glu(5-aminoethylsulfonamide isoquinoline)-Orn-Hol (RPR[Abu]E(X1)[Orn][hLeu])				11%	15%
60020-21: Arg-Pro-Arg-Abu-Glu(5-aminoethylsulfonamide isoquinoline)-Ala-Phe (RPR[Abu]E(X1)AF)				−2%	6%

Substance	IC50 (chimeric PTR compounds (peptide conjugated to isoquinoline small molecule), read-out: PKB IC50)	% Inhibition PKB I	% Inhibition PKB II	PKB-kinase (spa) Assay 1, % inhibition of kinase activity	PKB-kinase (spa) Assay 2, % inhibition of kinase activity
60020-22: Arg-Pro-Arg-Abu-Glu(5-aminoethylsulfonamide isoquinoline)-Ala-Hol (RPR[Abu]E(X1)A[hLeu])				−5%	−2%
60020-23: Arg-Pro-Arg-Abu-Glu(5-aminoethylsulfonamide isoquinoline)-Nva-Phe (RPR[Abu]E(X1)[Nva]F)				−3%	−8%
60020-24: Arg-Pro-Arg-Abu-Glu(5-aminoethylsulfonamide isoquinoline)-Nva-Hol (RPR[Abu]E(X1)[Nva][hLeu])				−17%	−12%
60020-26: Arg-Pro-Arg-Nle-Glu(5-aminoethylsulfonamide isoquinoline)-Dab-Hol (RPR[Nle]E(X1)[Dab][hLeu])				17%	18%
60020-27: Arg-Pro-Arg-Nle-Glu(5-aminoethylsulfonamide isoquinoline)-Orn-Phe (RPR[Nle]E(X1)[Orn]F)				63%	25%
60020-28: Arg-Pro-Arg-Nle-Glu(5-aminoethylsulfonamide isoquinoline)-Orn-Hol (RPR[Nle]E(X1)[Orn][hLeu])				27%	31%
60020-29: Arg-Pro-Arg-Nle-Glu(5-aminoethylsulfonamide isoquinoline)-Ala-Phe (RPR[Nle]E(X1)AF)				19%	39%
60020-30: Arg-Pro-Arg-Nle-Glu(5-aminoethylsulfonamide isoquinoline)-Ala-Hol (RPR[Nle]E(X1)A[hLeu])				14%	38%
60020-32: Arg-Pro-Arg-Nle-Glu(5-aminoethylsulfonamide isoquinoline)-Nva-Hol (RPR[Nle]E(X1)[Nva][hLeu])				12%	32%
60020-39: Arg-Pro-Arg-Dap-Glu(Gly-5-aminoethylsulfonamide isoquinoline)-Nva-Phe (RPR[Dap]E([Gly-X1])[Nva]F)				17%	16%
60020-40: Arg-Pro-Arg-Dap-Glu(Gly-5-aminoethylsulfonamide isoquinoline)-Nva-Hol (RPR[Dap]E([Gly-X1])[Nva][hLeu])				36%	22%
60020-45: Arg-Pro-Arg-Orn-Glu(Gly-5-aminoethylsulfonamide isoquinoline)-Ala-Phe (RPR[Orn]E([Gly-X1])AF)				29%	53%
60020-46: Arg-Pro-Arg-Orn-Glu(Gly-5-aminoethylsulfonamide isoquinoline)-Ala-Hol (RPR[Orn]E([Gly-X1])A[hLeu])				37%	57%
60020-47: Arg-Pro-Arg-Orn-Glu(Gly-5-aminoethylsulfonamide isoquinoline)-Nva-Phe (RPR[Orn]E([Gly-X1])[Nva]F)				21%	33%
60020-48: Arg-Pro-Arg-Orn-Glu(Gly-5-aminoethylsulfonamide isoquinoline)-Nva-Hol (RPR[Orn]E([Gly-X1])[Nva][hLeu])				10%	22%
60020-53: Arg-Pro-Arg-Abu-Glu(Gly-5-aminoethylsulfonamide isoquinoline)-Ala-Phe (RPR[Abu]E([Gly-X1])AF)				20%	13%
60020-54: Arg-Pro-Arg-Abu-Glu(Gly-5-aminoethylsulfonamide isoquinoline)-Ala-Hol (RPR[Abu]E([Gly-X1])A[hLeu])				34%	45%
60020-55: Arg-Pro-Arg-Abu-Glu(Gly-5-aminoethylsulfonamide isoquinoline)-Nva-Phe (RPR[Abu]E([Gly-X1])[Nva]F)				20%	40%
60020-56: Arg-Pro-Arg-Abu-Glu(Gly-5-aminoethylsulfonamide isoquinoline)-Nva-Hol (RPR[Abu]E([Gly-X1])[Nva][hLeu])				20%	47%
